The values that follow come from patent US20240360203A1.

Assay [1] addresses WIV1 spike protein (bat SARS-like coronavirus WIV1). The assay can be described thus: cell-based or functional assay.
For assay [2], the target named is SARS-CoV-1 spike protein (SARS-CoV-1) (UniProt P59594). In words: cell-based or functional assay.
The target of assay [3] is HIV-1 Env peptide, biotinylated (negative control) (HIV-1). The assay can be described thus: DELFIA on captured biotin-peptide. Further details: unit not given beside the values.

Regarding Bebtelovimab (antibody), the pseudovirus neutralization Emax (% neutralization) in assay [1] is 6.99; in assay [2], 8.
The substance “isotype control (palivizumab variable regions expressed as human IgG1 with LS mutation in the Fc region) (antibody)” came in with an AUC in assay [3] of 41500.
